T1: PCPE-1 (Procollagen C-proteinase enhancer-1) glycoprotein, human (human, UniProt Q15113 26-449)
T1 construct: mature; Secreted recombinant protein; also called purified human PCPE-1
T1 sequence (looked up): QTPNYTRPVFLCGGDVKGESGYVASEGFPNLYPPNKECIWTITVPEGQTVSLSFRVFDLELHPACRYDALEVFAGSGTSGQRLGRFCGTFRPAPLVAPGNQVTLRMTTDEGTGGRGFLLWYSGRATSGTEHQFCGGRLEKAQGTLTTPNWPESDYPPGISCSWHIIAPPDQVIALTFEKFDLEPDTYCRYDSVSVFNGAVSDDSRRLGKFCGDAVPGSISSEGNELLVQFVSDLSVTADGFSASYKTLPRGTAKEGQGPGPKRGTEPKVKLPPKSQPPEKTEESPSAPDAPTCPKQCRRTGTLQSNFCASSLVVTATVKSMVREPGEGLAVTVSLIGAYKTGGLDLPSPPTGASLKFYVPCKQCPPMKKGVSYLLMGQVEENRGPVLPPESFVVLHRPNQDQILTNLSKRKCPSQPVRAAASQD

T2: CUB1 domain of PCPE-1 (human, UniProt Q15113 37-149)
T2 construct: domain: CUB1
T2 sequence (looked up): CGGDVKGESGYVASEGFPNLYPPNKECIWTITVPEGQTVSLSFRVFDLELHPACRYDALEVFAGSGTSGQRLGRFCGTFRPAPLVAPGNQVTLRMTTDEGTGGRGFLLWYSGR

T3: CUB2 domain of PCPE-1 (human, UniProt Q15113 159-273)
T3 construct: domain: CUB2
T3 sequence (looked up): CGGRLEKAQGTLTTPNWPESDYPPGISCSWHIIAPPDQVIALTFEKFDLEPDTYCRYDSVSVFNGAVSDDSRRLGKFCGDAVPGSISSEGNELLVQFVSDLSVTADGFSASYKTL

T4: PCPE-2 (with a 6-his N-terminal tag) (UniProt Q9UKZ9 24-415)
T4 construct: not shown: N-terminal 6-His tag
T4 sequence (looked up): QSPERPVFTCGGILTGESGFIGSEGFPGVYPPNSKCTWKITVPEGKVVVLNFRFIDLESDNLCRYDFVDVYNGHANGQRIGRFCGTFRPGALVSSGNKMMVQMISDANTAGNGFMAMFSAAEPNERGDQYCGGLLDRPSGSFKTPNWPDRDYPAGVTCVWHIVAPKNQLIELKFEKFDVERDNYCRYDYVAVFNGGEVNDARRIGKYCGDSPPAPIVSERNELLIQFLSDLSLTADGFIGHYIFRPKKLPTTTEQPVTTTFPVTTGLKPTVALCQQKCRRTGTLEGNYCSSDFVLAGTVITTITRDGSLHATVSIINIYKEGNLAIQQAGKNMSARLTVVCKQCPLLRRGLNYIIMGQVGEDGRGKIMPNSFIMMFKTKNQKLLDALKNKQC

B1: VHH-I3 (VHH)
VHH: QVQLVESGGGLVEPGGSLRLSCAVSGSTFSMNVMGWYRQAPGKHREWVGSIGTGGGTNYPDSVKGRFTISRDNVKKTVYLQMNSLKPEDTAVYYCNKIPHNWGWGQGTQVTVSS
notes: Llama nanobody, pHEN6 vector, pelB signal, produced in E. coli periplasm; also called nanobody I3; 13; not shown: C-terminal 6-His tag
B2: VHH-H4 (VHH)
VHH: EVQLQASGGGFVQPGGSLRLSCAASGFTSEISNMGWFRQAPGKEREFVSAISGTHTTQTYYADSVKGRFTISRDNSKNTVYLQMNSLRAEDTATYYCAAEQDMSDLWLGSYWGQGTQVTVSS
notes: Synthetic nanobody (hsd2ab library), pET29b(+) vector, pelB signal; also called nanobody-H4; not shown: C-terminal 6-His tag
B3: VHH-H10 (VHH)
VHH: EVQLQASGGGFVQPGGSLRLSCAASGYGWWIYEMGWFRQAPGKEREFVSAISWADGTRTYYADSVKGRFTISRDNSKNTVYLQMNSLRAEDTATYYCAIYILEGTQGVPIYWGQGTQVTVSS
notes: Synthetic nanobody (hsd2ab library), pET29b(+) vector, pelB signal; not shown: C-terminal 6-His tag
B4: VHH-H3 (VHH)
VHH: EVQLQASGGGFVQPGGSLRLSCAASGATYWFSSMGWFRQAPGKEREFVSAISYWFDDIEYYADSVKGRFTISRDNSKNTVYLQMNSLRAEDTATYYCAMWNEQTGEEYWGQGTQVTVSS
notes: as for B3
B5: VHH-H6 (VHH)
VHH: EVQLQASGGGFVQPGGSLRLSCAASGFTSARYNMGWFRQAPGKEREFVSAISRHTDRQTYYADSVKGRFTISRDNSKNTVYLQMNSLRAEDTATYYCAVGMMPKQKQYWGQGTQVTVSS
notes: as for B3
B6: VHH-H7 (VHH)
VHH: EVQLQASGGGFVQPGGSLRLSCAASGYYFRGEDMGWFRQAPGKEREFVSAISDDSTATIYYADSVKGRFTISRDNSKNTVYLQMNSLRAEDTATYYCAPGWYIYLDWSESGSAYWGQGTQVTVSS
notes: as for B3
B7: VHH-H8 (VHH)
VHH: EVQLQASGGGFVQPGGSLRLSCAASGYTSDLTVMGWFRQAPGKEREFVSAISSHFGPPHYYADSVKGRFTISRDNSKNTVYLQMNSLRAEDTATYYCAMRERRHSWWYWGQGTQVTVSS
notes: as for B3
B8: VHH-H9 (VHH)
VHH: EVQLQASGGGFVQPGGSLRLSCAASGDTFNLTTMGWFRQAPGKEREFVSAISSSNTHIAYYADSVKGRFTISRDNSKNTVYLQMNSLRAEDTATYYCAYTYYGKNGKGMVYWGQGTQVTVSS
notes: as for B3
B9: VHH-I2 (VHH)
VHH: QVQLVESGGGWVQPGGSLRLSCAASGITFSTKTMGWYRQRPGKRREWIGSISPTGFTNYADAVKGRVTISRDNGENTVYLQMNSLKPEDTAVYFCNGVPPVIIDGQSVAYWGQGTQVTVSS
notes: Llama nanobody, pHEN6 vector, pelB signal, produced in E. coli periplasm; also called nanobody I2; not shown: C-terminal 6-His tag
B10: VHH-I4 (VHH)
VHH: QVQLVESGGGSVAAGESLTLSCRMSGSTSSIQAMGWYRRAPGNQREWLATISPRGNTNYADSVKGRFTISRDNAKNTVYLQMNSLKPADTAVYYCNTVPSGGIPWGQGTQVTVSS
notes: Llama nanobody, pHEN6 vector, pelB signal, produced in E. coli periplasm; also called nanobody I4; not shown: C-terminal 6-His tag
B11: VHH-I5 (VHH)
VHH: QVQLVESGGGLVQPGGFLRLLCTASGNIFSSNTMGWYRRAPGKQREWVASISKGGSTNYADSVKDRFTISRSITKNTVYLQMVNLKPEDTAVYYCNPVPDSDNYASGQGTQVTVSS
notes: Llama nanobody, pHEN6 vector, pelB signal, produced in E. coli periplasm; also called nanobody-I5; 15; not shown: C-terminal 6-His tag
B12: VHH-I7 (VHH)
VHH: QVQLVESGGGLVPPGGSLKLSCTASGSIFSSNVMGWYRRAPGKQREWVASISRGGGTNYPDSVKGRFTVSRDIAKNTVYLQISSLKPEDTAVYYCNPIPYSGDYVSGQGTQVTVSS
notes: Llama nanobody, pHEN6 vector, pelB signal, produced in E. coli periplasm; also called nanobody I7; 17; not shown: C-terminal 6-His tag
B13: VHH-I11 (VHH)
VHH: QVQLVESGGGTVQAGGSLRLSCTASGRGRNAMGWYRQVPGGKRELVASINRGGTTDYTDSVKDRFTISRDSAKNTVYLQMDSLQPEDTAVYYCNAESTVIPGHIYDYWGRGTQVTVSS
notes: Llama nanobody, pHEN6 vector, pelB signal, produced in E. coli periplasm; also called nanobody I11; not shown: C-terminal 6-His tag
B14: VHH-H1 (VHH)
VHH: EVQLQASGGGFVQPGGSLRLSCAASGRTWSFYAMGWFRQAPGKEREFVSAISWNGGGEHYYADSVKGRFTISRDNSKNTVYLQMNSLRAEDTATYYCAHMEFSQSDYIISKWIYWGQGTQVTVSS
notes: as for B3
B15: VHH-H2 (VHH)
VHH: EVQLQASGGGFVQPGGSLRLSCAASGSTSRDEGMGWFRQAPGKEREFVSAISRDHGWREYYADSVKGRFTISRDNSKNTVYLQMNSLRAEDTATYYCAPVIIDTMEVIPLYWGQGTQVTVSS
notes: as for B3
B16: VHH-I5 biotinylated at its C-terminus using sortase (VHH)
VHH: B11 VHH
modifications: C-terminal biotin (GGGK-biotin ligated by Sortase A at the LPETG site)
notes: pHEN vector with LPETG and 6-His; Captured on streptavidin; also called biotinylated VHH-I5; not shown: GGGK-biotin ligated by Sortase A in place of the 6-His label
B17: VHH-H4 biotinylated at its C-terminus using sortase (VHH)
VHH: B2 VHH
modifications: C-terminal biotin (GGGK-biotin ligated by Sortase A at the LPETG site)
notes: pHEN vector with LPETG and 6-His; Captured on streptavidin; also called biotinylated VHH-H4; biotinylated H4 nanobody; not shown: GGGK-biotin ligated by Sortase A in place of the 6-His label

What follows are binders tested against T1, PCPE-1 (Procollagen C-proteinase …) (assay: SPR, VHH injected on immobilized PCPE-1).

B1 was tested. Which Kd did it give?
Its Kd is 16 nM.

B2 was tested. Which Kd did it give?
The Kd was 30 nM.

With B3 as the binder, how does the Kd read?
Its Kd is 18 nM.

How did the Kd turn out when B4 was run?
The Kd was greater than 250 nM.

For B5, which Kd is on record?
The Kd was greater than 250 nM.

How did the Kd turn out when B6 was run?
The Kd was 152 nM.

Which Kd does the source give for B7 here?
Its Kd is greater than 250 nM.

B8 was tested. Which Kd did it give?
Its Kd is greater than 250 nM.

How did the Kd turn out when B9 was run?
The Kd was 154 nM.

For B10, which Kd is on record?
The Kd was greater than 250 nM.

How did the Kd turn out when B11 was run?
The Kd was 7.2 nM.

With B12 as the binder, how does the Kd read?
The Kd was 12.8 nM.

With B13 as the binder, how does the Kd read?
Its Kd is 161 nM.

With B14 as the binder, how does the Kd read?
The Kd was greater than 250 nM.

Which Kd does the source give for B15 here?
Its Kd is greater than 250 nM.

Each binder was assayed against T1, PCPE-1 (Procollagen C-proteinase …) (assay: SPR, biotinylated VHH on streptavidin chip, PCPE-1 injected, 1:1 binding model).
Method: (§1) FIG. 2D: VHHs […] is biotinylated and immobilized on a streptavidin chip (813 RU), then increasing concentrations of PCPE-1 (black) or PCPE-2 (grey) are injected.
(§2) FIG. 2E: VHH H4 is biotinylated and immobilized on a streptavidin chip (491 RU), then increasing concentrations of PCPE-1 or PCPE-2 are injected. [0038] D, E: Interactions are modeled (dotted line) using the Langmuir model (Biacore T200 Evaluation software, Cytiva)
(§3) PCPE-2 is a protein in the same family as PCPE-1, with a 43% identical amino acid sequence. It shares certain activities with PCPE-1, but also has very different specific functions. The specificity of nanobody interaction for PCPE-1 versus PCPE-2 was analyzed by SPR. To achieve this, VHH-I5 and VHH-H4 were biotinylated at their C-terminus using sortase, then immobilized on a streptavidin surface. […] The affinity of VHH-I5 and -H4 for PCPE-1 is therefore at least 250 times greater than for PCPE-2.

Which results are given for B16?
Kd: 1.45 nM; koff: 0.00136 s⁻¹; kon: 937000 M⁻¹ s⁻¹

How did the Kd turn out when B17 was run?
The Kd was 3.88 nM.

What about the koff of the same binder?
The koff was 0.0195 s⁻¹.

What about the kon of the same binder?
The kon was 5.04e+06 M⁻¹ s⁻¹.

Each binder was assayed against T1, PCPE-1 (Procollagen C-proteinase …) (assay: SPR competition: PCPE-1 (5 nM) co-injected with VHH on immobilized Mini III; VHH-I5 alone, 5 nM PCPE-1).
Method: (§4) Surface plasmon resonance (SPR) experiments were carried out on a Biacore T200 (Cytiva). The ligand proteins, in solution in 10 mM HEPES pH 7.4 buffer for PCPE-1 or 10 mM sodium acetate pH 4.5 buffer for mini-procollagen III and streptavidin, are immobilized on CM5 chips by amine coupling. Analytes are diluted in running buffer (10 mM HEPES pH 7.4, 0.15 M NaCl, 5 mM CaCl₂), 0.05% P20) and injected at a flow rate of 30 or 50 μL/min. Competition, epitope binning and kinetics experiments were all carried out at 25° C. Regeneration was achieved by successive injection of 2 M guanidine chloride and 0.5 M EDTA for 30 sec. Sensorgrams were analyzed with Biacore T200 Evaluation v3.2.1 (Cytiva), using the most suitable models. IC50 was determined by non-linear regression using GraphPad Prism (v8.2.1).
(§5) What is more, their antagonistic effects are additive, and co-injection of a mixture of VHH-I5 and VHH-H4 with PCPE-1 virtually eliminates its interaction with Mini III.

B11 was tested. Which IC50 did it give?
The IC50 was roughly 24 nM.

These binders were tested against T1, PCPE-1 (Procollagen C-proteinase …) (assay: SPR competition: PCPE-1 (5 nM) co-injected with VHH on immobilized Mini III; VHH-H4 alone, 5 nM PCPE-1).
Method: as §4, §5

Which IC50 does the source give for B2 here?
Its IC50 is roughly 45 nM.

The binders below were run against T2, CUB1 domain of PCPE-1 (assay: SPR competition: VHH (50 nM) co-injected with the soluble CUB1 domain (250 nM) over immobilized PCPE-1).

Does B1 bind?
Result: no binding (tested: 250 nM)

The binders below were run against T1, PCPE-1 (Procollagen C-proteinase …) (assay: SPR, biotinylated VHH on streptavidin chip; reference PCPE-2).
Method: as §1, §2, §3

For B16, which “fold affinity for PCPE-1 over PCPE-2” value is on record?
The value was no less than 250 fold.

For B17, which “fold affinity for PCPE-1 over PCPE-2” value is on record?
The value was no less than 250 fold.

The binders below were run against T3, CUB2 domain of PCPE-1 (assay: SPR competition: VHH (50 nM) co-injected with the soluble CUB2 domain (250 nM) over immobilized PCPE-1).

Does B2 bind?
Result: no binding (tested: 250 nM)

Does B3 bind?
Result: no binding (tested: 250 nM)

Each binder was assayed against T4, PCPE-2 (with a 6-his N-terminal tag) (assay: SPR, biotinylated VHH on streptavidin chip, PCPE-2 injected).
Method: as §1, §2, §3

With B16 as the binder, how does the Kd read?
Its Kd is greater than 1000 nM.

For B17, which Kd is on record?
The Kd was greater than 1000 nM.
